Results taken from PMC12575831.

Test system: PUS7 (pseudouridine synthase 7) (Homo sapiens)
Assay: EMSA
Details: 1 mM Mg2+; 40 nM RNA, 0-500 nM PUS7; none (unmodified IVT, U250); 10 mM Tris-HCl pH 7.5, 100 mM KCl, 1 mM MgCl2, 0.1 mM DTT, 5% glycerol; 37 °C 30 min; gel 4-20% TBE at 4 °C

Substance: in vitro-transcribed 7SK snRNA
- Kd: 98 nM
